Results as given in the supplement of paper PMC12764529.
± gives the half width of the 95% confidence interval.

Tests used:
[1] = folding stability dG unfold from trypsin proteolysis; higher = more stable
Method in brief: (§1)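 Only designs with AlphaFold2 dimer inter-PAE above 15 were retained; each was a mini-protein under 80 residues with no cysteine, in a PA-tagged cDNA display construct. After digestion with trypsin and chymotrypsin and sequencing, K50 was inferred by Bayesian fitting of counts, and unfolding free energy was derived per protease or combined against a sequence-predicted unfolded-state K50 and a shared folded-state K50.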

[2] = folding stability dG unfold from chymotrypsin proteolysis; higher = more stable
Method in brief: as §1

[3] = folding stability dG unfold (combined trypsin and chymotrypsin); higher = more stable
Method in brief: as §1

Row | Sequence | folding stability dG unfold [1] [kcal/mol] | folding stability dG unfold [2] [kcal/mol] | folding stability dG unfold [3] [kcal/mol]
1 | SAGDAEEIAKKIEEAAREEFAARLGYPDLEILKVEVLEVDPVTGRVRVRVTVRLPDGRLLEAEFEVPVASAG [r5_20_TrMRF] | 3.83 ± 0.06 | 3.41 ± 0.06 | 3.65 ± 0.065
2 | SAGDAVRIPIRFPNGMQIYSIEINPDENTIKIKIYDPNGYRKFEWTFPVKDPNGDPKLVGKIKFYMRPPSAG [r5_434_TrROS] | 2.01 ± 0.069 | 2.61 ± 0.16 | 2.31 ± 0.23
3 | SAGDFLKNLPPGIKRWRPVASDPDGHFVFVFKYKTPDRPRYMVIQFPPNGRIQDIHIFPPDEADKAVNKSAG [r5_73_TrROS] | 0.72 ± 0.073 | 2.04 ± 0.23 | 1.52 ± 0.25
4 | SAGDGDKMRGEHEREDPNGKKREVTHEMKVQPPPVPKPKIELPADDIDEIDPDNGTLRNPGNGKPFPIGSAG [r5_807_TrROS] | 0.0244 ± 0.15 | -0.465 ± 0.17 | -0.31 ± 0.41
5 | SAGDNYREVEYTLKLKNPKGERKLKVKVYYPKGGMFIKIEWPDNGRKIDIPFKSPEDAEETIKDLLDKLSAG [r5_480_TrROS] | 1.71 ± 0.059 | 2.25 ± 0.13 | 2.13 ± 0.22
6 | SAGDQTITIKIPNAPPGSRVQIMLFDPGKIKGFHEIDPDDPKEVEIKIELPPYTIMIYVADGNVFPIPISAG [r5_646_TrROS] | 1.94 ± 0.12 | 2.82 ± 0.059 | 2.46 ± 0.21
7 | SAGDRIRITMPFDDLRKIMDEIGYPPEQMTAEEFADRLAEHFPGVKVDIEMDREDGYFTVEIELPPGMKSAG [r5_264_TrROS] | 1.43 ± 0.062 | 1.43 ± 0.041 | 1.42 ± 0.18
8 | SAGDSIEIMVMVKTPEEAKKLADEIAQILPGNGLNIEITIMPMEELMKMFMEMTKPDPDGEYRRVRMFSAGG [r19_187_TrROS] | 1.07 ± 0.053 | 1.37 ± 0.13 | 1.3 ± 0.14
9 | SAGDSVVIPFRLPPENLSPEELLEWIIDEVKEAAKAGLPHKVTIQVPYPGKPWYITIDPKNGEIEIVPSAGG [r19_204_TrROS] | 1.04 ± 0.088 | 1.66 ± 0.085 | 1.52 ± 0.15
10 | SAGDTISIMIPPGMSGERAVNQIKYIAREQKENGKKRKITIWMPDPMRARFIKKALDEKGIPIEIEFWSAGG [r19_268_TrROS] | 1.24 ± 0.049 | 0.766 ± 0.11 | 1 ± 0.1
11 | SAGDVKVITIKNPDGWQASIALNEDGTVYLMFNSPDQFLDLIEDLGFPITSVEMHPNGMMIFTIELPPSAGG [r19_257_TrROS] | 2.27 ± 0.061 | 4.26 ± 0.17 | 3.41 ± 0.18
12 | SAGEEKEAKALAEQYAAEFAPKLGMKYEVPEVKVEKDEKTGKITVTVTVKFTFPEPRTVTKKFTIVVPKSAG [r5_381_JUSTAS] | 2.4 ± 0.14 | 1.61 ± 0.11 | 2.14 ± 0.27
13 | SAGEERTVRVEIEIVVKTEEELEALKALFPNAEATRNEDGLLTLRLTIEVRVAPPVVVRDPETNELLELSAG [r5_129_TrROS_Hall] | 2.56 ± 0.088 | 2.42 ± 0.049 | 2.46 ± 0.11
14 | SAGEFEVLEVREVDGRLVVRLALPDKPEVVTIVLERHPDGSVRALIEAEGEAADRIVEALPELDEVVVASAG [r5_933_TrMRF] | 1.9 ± 0.036 | 2.64 ± 0.11 | 2.46 ± 0.15
15 | SAGEIAEYIAEYLAQEPGFQDVEVNIKITDIEPPPNGYMYHKIDIHVRVRNPDDGKPREVNFDITFPMPSAG [r5_176_TrROS] | 1.1 ± 0.084 | 1.83 ± 0.068 | 1.7 ± 0.17
16 | SAGEIKIEIKKNKNGKLTIRITVKKKDGEEKEIEIEVPENMTAEELAKELEKKGFEITEIKSIEELLKSAGG [r19_263_TrROS_Hall] | 3.89 ± 0.34 | 3.83 ± 0.25 | 3.98 ± 0.6
17 | SAGEKEVIEIEVRVTVVRRLPEDLSEEQRKALEDELEVEEVTVRVRFDLDTGRIYVEFEDGSRLEFELPSAG [r5_701_TrROS_Hall] | 2.67 ± 0.054 | 3.37 ± 0.066 | 3.16 ± 0.1
18 | SAGEKKIKIEIKEIKPHENGYLSIKAKAYLEDGKKVAEVYEPYPPNLSLEELIEKVIERLEKEVKEKGESAG [r5_697_TrMRF] | 0.445 ± 0.039 | -0.207 ± 0.18 | 0.22 ± 0.21
